Laboratory results: the DeepSol protein solubility set

Assay: soluble on expression in E. coli; label from the status in PepcDB or PDB records

| Sequence | soluble on expression in E. coli |
| --- | --- |
| MGSDKIHHHHHHMKIAIVGSGNGAVTAAVDMVDKGHDVRLYCRNESISKFDVALEKGGFDFYNEGEEKFIEFTDISDDMEYVLDGADIVQVIIPSSFIEYYAKVMSKFVTNDHLIFFNIAASMGSIRFMNVLEDRHIDVHPHFAEANTLTYGTRVDFNNAKVDLSLNVRRVFFSTFDRSELNESYEKVSKIYDYLVKEESLLKTNLENGNPEVHPGPTLLNVGRIDYSEEFSLYKEGITKHTVRLLHAIEIERLNLGRKLGFELSTAKESRIQRGYLERKDEDEPLNRLFNTSPVFSQIPGPNHVENRYLTEDIAYGLVLWSSLGRVIDVPTPNIDAVIMIASTILERDFFEEGLTIEELGLDKLGLE | not soluble |
| MRCPYCQYEDTQVKDSRPSEEGTVIRRRRICSVCGGRFTTFERVQLRELLVLKKSGRYEPFDRDKLMRSVEIAVRKRGIDPDYIERVISGIVRQLESLGEPEISSEKIGLLVMKALKSIDDIAYIRFASVYRDFRNASDFHDVIEELSKGITDTESCFDE | not soluble |
| MSLRVENLRSSTYRNGPTGLPNRARFSEDLDAVLLQRTADSAATAIAVDLCGSDYFRDMVKALGWDYADGYVALAYKRLISKLPAGTALYRLDTTTFAFMVTTADPLRLSALCSKISKGFVAPLEHQGIPHTAVASIGAVLLETSYGAADTLRSLTTSVDVAREHCLTWSLYERKHDVVQRNTFRLLAALPAALASSNQLRLHYQPRVDLHDHRCVAVEALLRWQHPMIGPVMPSDFIPMAEKTALINRITAWVIDQGIAQAARWQQQGLDFNLALNVSAADLDQPGFVGLLRRGLDRHKLDPRRLEIEFTESAMIRHPEHLSEQLAAVAALGVHIAIDDFGTGYSNFSYLKQLPASSLKIDQSFVRSLPDSRTDRTLVPAMIQLGHSLGQRVVAEGIESAQAYAQLRSWGCDEGQGYWIAKPMPAAALEAWLETPWYQRATDAEGHHHHHH | soluble |
| SNAMFHYTVDVSTGMNETIERLEESLKQEGFGVLWQFSVTEKLQEKGLDFSTPMVILEVCNPQEAARVLNENLLVGYFLPCKLVVYQENGTTKIGMPKPTMLVGMMNDPALKEIAADIEKRLAACLDRCR | soluble |
| MGSDKIHHHHHHMAAALDGIRVLDLSRVLAGPWASQALADLGAEVIKIERPGAGDDTRSWGPPFLKDEDGRETTDAAYFLAANRGKKSLTVDITKAEGQDLVRALAARSHVVIENFKLGGLAKYGLDWPSLRAVNPALVYCSITGFGQTGPYAPRAGYDAMIQAMSGLMSVTGEPDGVAGGGPMKVGVAVTDILTGLYAAFGILAALRHAEATGEGQHIDLALMDTAVACMANQAANALVGERVPGRLGTAHPNIVPYQAFATQDGHLMLAVGNDGQFARLCAIGQRPDLPLDPRFARNRDRVAHRAALLAEIIPMMASRSTDAWIAALESAGVPCGPINTLDRVFADPQVIARGLRVDGTHAEAGTVPMVRNPLLLSATPPTHTAGPPTLGQHTDGVLSDVLGLTAEDITTLRQKAIV | not soluble |
| MSLNSQEMVLGNAWLVLADRVIEHGWVAIADGVIAEVGEGDAPNGAKDMHGDLVMPGLVELHTDHLEAHYTPRPKVQWNPVAAVVSYDGQLATCGITTVLDSLRVWREEGAEEVDGQAIVLAGAISTARDAQLLRADHFLHLRCEIPMPNVVAEAKELIDRPDIRLMSLMDHTPGQRQFRDEEKLRDYYRGKGAGMTDAELDVMFARRVYCKENYADANMRAIVELAHRYEIPLASHDDTTPENVADAIRDRVAVAEFPTTLEAARELHQAGIDILMGAPNVVRGGSHSGNIAAIDLAHEGLLDILSSDYIPSSLLIAALQLPMRAPGIDLAAAIRTVTKAPAEAVGLNDRGEISKGKRADLIRVHVAHDVPAVRSVWREGQRVAEGHHHHHH | not soluble |
| MGSDKIHHHHHHMASIDFRNKINWHRRYRSPQGVKTEHEILRIFESDRGRIINSPAIRRLQQKTQVFPLERNAAVRTRLTHSMEVQQVGRYIAKEILSRLKEQDRLEEYGLDALTGPFESIVEMACLMHDIGNPPFGHFGEAAINDWFRQRLHPEDAESQPLTHDRCVVSSLRLQEGEENLNDIRRKVRQDICHFEGNAQGIRLVHTLMRMNLTWAQVGGILKYTRPAWWRGPVPDSHRYLMKKPGYYLSEEKYIARLRKELQLAPYSRFPLTWIMEAADDISYCVADLEDAVEKRIFSVEQLYHHLYHAWCHHEKDSLFELVVGNAWEKSRANTLSRSTEDQFFMYLRVNTLNKLVPYAAQRFIDNLPQIFAGTFNQALLEDASGFSRLLELYKNVAVEHVFSHPDVEQLELQGYRVISGLLDIYQPLLSLSLNDFRELVEKERLKRFPIESRLFQKLSTRHRLAYVEVVSKLPTDSAEYPVLEYYYRCRLIQDYISGMTDLYAWDEYRRLMAVEQ | not soluble |
| MGSDKIHHHHHHMSYSEKMLAALSNGQIDTAKKHFAWALRKDDDQTLYSLAEELYGLGFLKQAERTYKKLLAKYPDEDDLRTSLADIAIDEDDTDLALDYLQQVKPDSPAYVQALLVEADLYQTQELFEVSEQKLKEAYQLAPDEPVVEFALAEFYFLIRNYGQATRFYLDLIKQGQLEISKVNLVERLGVAYAESGRFEQAVGYLEQIKPAKLTPDSQFELGFTYLQLNEPQKAVDIFDKLREQDNQYASLYPYLAQAQEQLHQLDKALLTLQEGLAVDQYNEQLYLQTARLALKLDDQELAEKYLREGLSIDPDNLTTVLELSNLLVQRERYQDNIDLLDQYLQSNEFDPQFYWNLAISNDRLDHFQAAKDNYEAAYPFFEHNKDFLKPAIYFFREAGMADSAVAALRNYLTIEPDDGEMVAMLEDYEDQGY | not soluble |
| MLDINLFREEKGNNPEIIRESQRRRFASVEIVDEIIKLDKEWRQRQFEVDSFRKEFNKLNKQVAQLKIKKEDASEIIQQTEKNKQDSTAKEAEVREAYAALKAKLEQVGNLVHDSVPVDKDEANNLVIKLWGEKRFSTPGLKLKNHVDLVELLGIADTKRGAEIAGARGFFLKGDGLMLNQALINFGLTFLKKRGFTGLQPPFFMRKDVMAKCAQLAQFDEELYKVTGEGDDKYLIATAEQPLCAYHIDEWIHPTELPLRYAGYSSCFRKEAGSHGRDTLGIFRVHQFEKIEQFCITGPNENASWEMLDEMMKNSEDFYQALKLPYQIVSIVSGALNDAAAKKYDLEAWFPSSETFRELVSCSNCTDYQARRLEIRYGQKKSNEQTKQYVHMLNSTLTATERTICCILENYQREDGVDIPEVLQPFMGGETFLPFKAKPVVADTKGKKSKA | soluble |
| GPGSMADSNPTKEGTSSAPLHPLKDKWFVFYIPASKGNEYEHETKELGYVSTIEEVYSTINTLPPITLLPNDDNLVFSRNKIEPQFESFPGGMRFSIFCKTKTQCREALTYVVAVVLGEAIGRDACKGECVCDIVRIGHKGSAMYKESVRIEVWAHQSPYNTAMEKYLVSTLSAIPGITVSARPFK | soluble |
| GHLDDNVTQEDIQAMLQEGSSAGVIEHNEHAMVKNVFRLDERTISSLMVPRSDIVFLDLNLPLDANLRTVMQSPHSRFPVCRNNVDDMVGIISAKQLLSESIAGERLELVDLVKNCNFVPNSLSGMELLEHFRTTGSQMVFVVDEYGDLKGLVTLQDMMDALTGEFFQEDGS | soluble |
| SSGGKSAQGPEEGGVCITEALITKRNLTFPEDGELSEKMFHTLDELQTVRLDREGITTIRNLEGLQNLHSLYLQGNKIQQIENLACIPSLRFLSLAGNQIRQVENLLDLPCLQFLDLSENLIETLKLDEFPQSLLILNLSGNSCTNQDGYRELVTEALPLLLDLDGQPVVERWISDEEDEASSDEEFPELSGPFCSERGFLKELEQELSRHREHRQQTALTEHLLRMEMQPTLTDLPLLPGVPMAGDSSPSATPAQGEETVPEAVSSPQASSPTKKPCSLIPRGHQSSFWGRKGARAATAPKASVAEAPSTTKTTAKRSKK | soluble |
| SATFVSELEAAKKNLSEALGDNVKQYWANLKLWFKQKISKEEFDLEAHRLLTQDNVHSHNDFLLAILTRCQILVSTPDGAGSLPWPGGSAAKPGKPKGKKKLSSVRQKFDHRFQPQNPLSGAQQFVAKDPQDDDDLKLCSHTMMLPTRGQLEGRMIVTAYEHGLDNVTEEAVSAVVYAVENHLKDILTSVVSRRKAYRLRDGHFKYAFGSNVTPQPYLKNSVVAYNNLIESPPAFTAPCAGQNPASHPPPDDAEQQAALLLACSGDTLPASLPPVNMYDLFEALQVHREVIPTHTVYALNIERIITKLWHPNHEELQQDKVHRQRLAAKEGLLLC | soluble |
| MKMFQKMCASTVIITTLLGIGGTVNSVHADSIEQQSKLGIDQETDKQIIVKFKADLKFPYEDGIEKQIQSQTNDKVLEDLLVEYPDVTFTRLFTSVSPEEIEDLEVKAPNNVSTSLLNYYILQTQNGEQKEELVDRLKKSCLIEDVYMKKQEKITPPEVQPSSVSLSPNNNPRFKQQGYLEAAPYGINAPFAWEVQGGKGSGITFVDMEYGWLLNHEDLVHQNIELMSGINIDQHVGHGTSVLGIVSSEDNEVGNIGIAPKAKAKVISQIRDNGQYNTADAILSAVNQLEAGDVLLLEAQASFDGYGDKYLPVEVQPDIFDAIRAGTDKGVVIIEAGANGWNDLDQFKDRNGKQILNRNSKDFKDSGAIMVGAGSSSFPHGRMWFSNYGSRIDVYGWGENVDTTTAEQSRSAVNLYTSSFSGTSSASPIIAGAATLVQSIAKENLGQPYRPSELRAILSNENTGTKSKDPYADQIGVLPDLKSILVNLGYGQRKPNGGNELQVTENEPNNERIQANKVNFHTPMKGTLHNSDRVDVFTFQMDSPENITISLLNEQNIGMTWVLHHESDLNNYVAYGENEGNVVKGTYHAKPGKYYLYVYKYENKDGSYVLNIK | not soluble |
| MFQTFEGDLKWHHHNITYWIQNYSEDLPRAVIDDAFARAFALWSAVTPLTFTRVYSRDADIVIQFGVAEHGDGYPFDGKDGLLAHAFPPGPGIQGDAHFDDDELWSLGKGQGYSLFLVAAHEFGHALGLDHSSVPEALMYPMYRFTEGPPLHKDDVNGIRHLY | soluble |
| MGSDKIHHHHHHVLKKALRQHFRQSCTEQDLHRWFDPLDITLADEKRLEVRFPHRFFAEWFSTQVQGRFESELNTFMGEGTTVEYTTGCCPVLSSSPLPPAAVSKKLSAPFGREYTFETFISNKRNFFPVASARELARQEEEIRYNPFVLCGPAGSGKTHLLRAIANELSKTVYKKHIFISTIDDLGTLFSNNGSGDPAQVRQQLSACHYLLLDDLHRLREQPQLQDELTVLFNSFYDRQKQMVFTCPGKLSELDFLETGLRSRLEWGLIVTMKPPDLEILVTFIQRQCKLHKLQLAKEHVFTLAQRFRDFRHLQGVLNRLTAYRDLVNRTLADTDFEQVLSHTEAGAGRPLTADRIIALCAGRFSLPPKDVTGDKRHQKVVLARQVAMYLCRELMGSSYPVLGRTFGGKDHSTAMYAVKKIKKMIDSDKTTRQLVTELKKQCLSGAE | not soluble |
| MGSDKIHHHHHHMHQFLRAIGFSDITKKQLNEVINNIIDKPEKLKVTKDFEGNEFAELSCDVAPNMGITVRGIYNDDDSFDIDYYYPYFTGSEKTTNEIIDIEKHSEKESYAGVCDDPNLGVTLIFYLQNVCDYLSEKAYINREVRAKGAVLSGLSVDGCILLPMKQKKAKTLNTVDSDKKDRKQLIAEARDGDESAMESLTMEDIDLYSSITRRIQNEDILSIVTTYFMPYGIESDQYSVLGDIIELTEEKNIITNEKIYCIKVSCNDIIFSVCINKNDLIGEPMVGRRFKGNIWMQGSICL | not soluble |
| MGSDKIHHHHHHMTGRQFDIEPLMDEINKSLKQEVNYLTEAQNTDLVKRTLTADHYVVPKVYHDYTTETVLTQSFETGLSVNQWIRSNPSRSDIQNFSQLVIQLMIDEMLLTGVVQTDPNYANFLYRPDSRQLVLLDFGATWTYSTEFRHDIHKLSMALLSGEIDKLMVGIYTRGYLDTRESDETKAQLREVLRMIGDISANLPQPVALQVDVAHDEIRAAAHVMGRGIRHTTLHKDLVLIGRKLTGMLLLLKEINAIVDFNEVRAHISAIKV | not soluble |
